The supplement of paper PMC6379048

What was measured:
[1] = target: ATIC (UniProt P31939); test: Kd (EC50 corrected by depletion factor)
Outline: (§1)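 Free RNA oligos (0 nM to 30 μM) competed for 1 h at 4°C in HEK293-FT lysate (2.5 mg protein/well) before a 30 min, 4°C pulldown with the same oligos on NHS-Sepharose beads. Bound proteins were quantified by label-free LC-MS/MS and normalised to the control. Kd was found by multiplying EC50, from a four-parameter log-logistic fit, by a protein-dependent depletion factor.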

[2] = target: IGF2BP3 (UniProt O00425); test: Kd (EC50 corrected by depletion factor)
Outline: as §1

ATIC, sequence (P31939 whole entry, looked up): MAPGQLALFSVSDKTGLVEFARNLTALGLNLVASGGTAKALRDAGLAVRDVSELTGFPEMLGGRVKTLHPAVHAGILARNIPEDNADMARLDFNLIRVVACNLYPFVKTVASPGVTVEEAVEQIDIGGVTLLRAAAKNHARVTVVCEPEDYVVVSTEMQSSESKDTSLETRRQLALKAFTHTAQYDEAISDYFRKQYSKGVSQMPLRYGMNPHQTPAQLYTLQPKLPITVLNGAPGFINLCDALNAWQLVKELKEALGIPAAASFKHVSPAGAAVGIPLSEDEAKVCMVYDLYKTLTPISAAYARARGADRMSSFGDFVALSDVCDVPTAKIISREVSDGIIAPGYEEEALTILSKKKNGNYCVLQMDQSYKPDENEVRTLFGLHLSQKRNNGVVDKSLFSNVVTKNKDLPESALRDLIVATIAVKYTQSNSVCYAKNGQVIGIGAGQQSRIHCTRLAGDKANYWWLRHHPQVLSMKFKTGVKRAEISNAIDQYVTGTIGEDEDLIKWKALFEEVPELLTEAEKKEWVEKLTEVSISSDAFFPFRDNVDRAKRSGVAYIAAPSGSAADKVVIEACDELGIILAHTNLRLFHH
IGF2BP3, sequence (O00425 whole entry): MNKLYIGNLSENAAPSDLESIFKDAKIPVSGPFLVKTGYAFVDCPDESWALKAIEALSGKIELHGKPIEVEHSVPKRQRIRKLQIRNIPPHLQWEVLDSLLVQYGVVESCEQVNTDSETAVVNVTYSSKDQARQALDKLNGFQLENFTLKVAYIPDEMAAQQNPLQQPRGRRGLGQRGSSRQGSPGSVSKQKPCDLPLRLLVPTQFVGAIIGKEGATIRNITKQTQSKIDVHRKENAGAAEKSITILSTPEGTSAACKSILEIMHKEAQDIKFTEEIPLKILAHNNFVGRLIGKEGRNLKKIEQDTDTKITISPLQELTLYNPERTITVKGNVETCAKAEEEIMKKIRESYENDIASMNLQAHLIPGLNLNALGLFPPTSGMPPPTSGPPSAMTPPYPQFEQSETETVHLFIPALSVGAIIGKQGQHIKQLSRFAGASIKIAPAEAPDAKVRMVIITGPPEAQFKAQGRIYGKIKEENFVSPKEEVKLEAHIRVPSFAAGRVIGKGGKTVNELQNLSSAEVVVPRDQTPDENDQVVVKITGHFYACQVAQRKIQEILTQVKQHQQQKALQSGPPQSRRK

| Sequence | Kd [1] [nM] | Kd [2] [nM] |
| --- | --- | --- |
| UAUUUAU | 523 | – |
| CUGUCCU | – | 685 |
